According to patent publication US20100273988A1 (Chugai, published 2010):

Assays:
[1] = biological target: HB-EGF protein (R&D Systems, Inc., 259-HE) (human, UniProt Q99075 63-148); test: cell-based or functional assay
[2] = biological target: proHB-EGF mutated at the protease cleavage site, expressed on Ba/F3 cells (HB-EGF_Ba/F3) (human) (UniProt Q99075); test: flow cytometry, hybridoma culture supernatant on HB-EGF_Ba/F3 cells, FITC-anti-mouse IgG; EXP. 2 (no-mAb control 6.9)
[3] = biological target: proHB-EGF mutated at the protease cleavage site, expressed on Ba/F3 cells (HB-EGF_Ba/F3) (human) (UniProt Q99075); test: flow cytometry, hybridoma culture supernatant on HB-EGF_Ba/F3 cells, FITC-anti-mouse IgG; EXP. 1 (no-mAb control 19.1)

proHB-EGF mutated at the protease cleavage site, expressed on Ba/F3 cells (HB-EGF_Ba/F3) (human), sequence (Q99075 20-208 limits assumed, change not shown): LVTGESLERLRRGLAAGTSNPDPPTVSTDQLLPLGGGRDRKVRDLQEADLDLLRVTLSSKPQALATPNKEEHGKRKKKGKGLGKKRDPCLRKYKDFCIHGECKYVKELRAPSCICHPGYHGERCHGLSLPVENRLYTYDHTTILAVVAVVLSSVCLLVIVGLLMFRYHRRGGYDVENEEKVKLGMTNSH
HB-EGF protein (R&D Systems, Inc., 259-HE), sequence (Q99075 63-148 limits assumed): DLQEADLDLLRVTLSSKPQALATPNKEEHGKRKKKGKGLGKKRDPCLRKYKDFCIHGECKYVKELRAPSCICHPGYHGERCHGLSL

B1: HC-15 (antibody, V domains shown)
VH: EVQLQQSGPELVKPGASVKISCKASGYSFTGYYMHWVKQSPEKRLEWIGEINPRTGITTYNQKFKAKATLTVDKSSSTAYMQLKSLTSEDSAVYYCARVGSSGPFTYWGQGTLVTVSA
VL: DIVMTQSPSSLSVSAGDKVTMSCKSSQSLLNSRNQKNYLAWYQQKPWQPPKLLIYGASTRESGVPDRFTGSGSGTDFTLTISSVQAEDLAVYYCQNDYSYPFTFGTGTKLEIK
- EC50 (nM) of the growth-inhibiting effect on EGFR_Ba/F3 cells in the presence of HB-EGF (80 ng/mL) [1]: 3.8 nM
- FACS (GEO-mean) [2]: 234 GEO-mean
- FACS (GEO-mean) [3]: 594 GEO-mean
